Data from paper PMC10899662, “TopBP1 utilises a bipartite GINS binding mode to support genome replication” (Nature Communications, 2024).

Columns and labels:
GINS complex = experiment: Size exclusion chromatography co-elution with GINS; format: binding; details: Superdex200; 20 µM of each component; 10 mM HEPES pH 7.5, 150 mM NaCl, 0.5 mM TCEP
Method: Recombinant TopBP1 and GINS proteins were mixed in an equimolar ratio to give a final concentration of 20 µM of each component and incubated on ice for at least 30 min prior to application to a Superdex200increase 10 300 column (GE Healthcare, Little Chalfont, UK) equilibrated in 10 mM HEPES pH 7.5, 150 mM NaCl, 0.5 mM TCEP.

GINS = experiment: Competition of PolE2-N with TopBP1 for immobilised GINS; format: binding; details: 150 mM NaCl; ten times molar excess of PolE2-N
Source text: We next explored the relationship between the interactions of TopBP1 and DNA Polε with GINS. These proteins are part of the recently characterised metazoan pre-LC[37]–[40]. […] These pre-LC models are less informative on how DNA Polε affects the TopBP1-GINS interaction. The N-terminal region of PolE2 (PolE2-N; aa 1–75) binds GINS mainly at the Psf1-B domain, with minor interactions with residues in the A-domain that partly overlap with the TopBP1-BRCT4 interaction surface (Fig. 7a–c). To test if the Psf1-B domain is required for TopBP1 interaction, we did pulldowns with GINS lacking the Psf1-B domain (Psf1-ΔB). […] This could be due to a residual affinity of BRCT4 for Psf1-ΔB or due to the GINI-Psf1 interaction. We therefore analysed specifically the interaction of GINS with BRCT4 using the TopBP1-Gcc mutant. […] The moderate effect of the B domain deletion on BRCT4 binding is consistent with the partial overlap of the BRCT4 and PolE2 binding sites in Psf1. […] Together, in pre-LC, TopBP1 likely binds GINS through the GINI region, potentially also involving a residual affinity of BRCT4 for GINS despite the presence of DNA Polε. TopBP1 and GINS are likely further stabilised in pre-LCs via their interactions with DONSON[37],[38],[41]. […]

B1: TopBP1-BRCT0-5-WT: recombinant TopBP1 amino acids 1–766, strep-tagged (protein)
chain: MSRNDKEPFFVKFLKSSDNSKCFFKALESIKEFQSEEYLQIITEEEALKIKENDRSLYICDPFSGVVFDHLKKLGCRIVGPQVVIFCMHHQRCVPRAEHPVYNMVMSDVTISCTSLEKEKREEVHKYVQMMGGRVYRDLNVSVTHLIAGEVGSKKYLVAANLKKPILLPSWIKTLWEKSQEKKITRYTDINMEDFKCPIFLGCIICVTGLCGLDRKEVQQLTVKHGGQYMGQLKMNECTHLIVQEPKGQKYECAKRWNVHCVTTQWFFDSIEKGFCQDESIYKTEPRPEAKTMPNSSTPTSQINTIDSRTLSDVSNISNINASCVSESICNSLNSKLEPTLENLENLDVSAFQAPEDLLDGCRIYLCGFSGRKLDKLRRLINSGGGVRFNQLNEDVTHVIVGDYDDELKQFWNKSAHRPHVVGAKWLLECFSKGYMLSEEPYIHANYQPVEIPVSHKPESKAALLKKKNSSFSKKDFAPSEKHEQADEDLLSQYENGSSTVVEAKTSEARPFNDSTHAEPLNDSTHISLQEENQSSVSHCVPDVSTITEEGLFSQKSFLVLGFSNENESNIANIIKENAGKIMSLLSRTVADYAVVPLLGCEVEATVGEVVTNTWLVTCIDYQTLFDPKSNPLFTPVPVMTGMTPLEDCVISFSQCAGAEKESLTFLANLLGASVQEYFVRKSNAKKGMFASTHLILKERGGSKYEAAKKWNLPAVTIAWLLETARTGKRADESHFLIENSTKEERSLETEITNGINLNSDTAEHP
modifications: left off: Strep, C-terminal, kept
notes: recombinant TopBP1 amino acids 1–766, strep-tagged
GINS complex
  co-elution with GINS from size exclusion column: co-eluted with the GINS complex
GINS
  competition by PolE2-N in stringent pulldown conditions: largely resistant to PolE2 competition
